Results taken from patent US20090018083A1.

What was measured:
[1] = biological target: BCL6-3C BTB domain (human BCL6 residues 5-129 with C8Q/C67R/C84N) (human) (UniProt P41182); experiment: SPR, biotinylated peptide on streptavidin chip, BCL6-3C BTB domain injected
[2] = biological target: GAL4-BTB^BCL6 (GAL4 DNA binding domain fused to the wild-type BCL6 BTB domain) (human); experiment: cell-based or functional assay

Chain of N-CoR^1351-1383 peptide, biotinylated, immobilised for SPR (Q60974 1351-1383): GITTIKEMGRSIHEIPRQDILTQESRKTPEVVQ

fold stronger affinity relative to SMRT^1414-1441 [1] [fold] | enhancement of repression in reporter assays [2] [fold] | Substance
2.5 | – | N-CoR^1351-1383 peptide, biotinylated, immobilised for SPR
– | 2 to 3 | full-length BCoR (from UniProt Q6W2J9 1-1721)
